Broadly, the Kd is a measure of binding affinity in units of concentration. Lower therefore signals a tighter complex.

The target of test [1] is T1, type I collagen (native, triple-helical; rat tail) (rat, UniProt P02454 152-1207; P02466 86-1125).
T1 construct: collagen alpha-1(I) chain, rat; collagen alpha-2(I) chain, rat; also called native collagen; rat-tail type I collagen; source: bought: Sigma (rat-tail type I collagen)
In words: ELISA; solid-phase binding assay: collagen or gelatin coated at 10 μg/ml on Nunc MaxiSorp plates; Fc-tagged Endo180 proteins in PBS with 0.1 mg/ml κ-casein and 0.05% Tween 20 added for 2 hr (titration, or fixed 1 μM in Figure 6A); detected with anti-human IgG-HRP, 492 nm; single-site fit. The note with it: both partners purified. In general terms: In an ELISA, binding on a coated surface is turned into a signal by an enzyme label.

In test [2] the target is T2, gelatin (heat-denatured rat-tail type I collagen) (rat, UniProt P02454 152-1207; P02466 86-1125).
T2 construct: collagen alpha-1(I) chain, rat, heat-denatured; collagen alpha-2(I) chain, rat, heat-denatured; Same chains as m3 but denatured (unfolded single chains) before coating or coupling; also called denatured collagen; source: bought: Sigma (rat-tail type I collagen), 1 mg/ml in 100 mM acetic acid heated to 67°C for 30 min
The test is described as above. The note with it: both partners purified.

T1 sequence (P02454 152-1207, chain 1 of 2): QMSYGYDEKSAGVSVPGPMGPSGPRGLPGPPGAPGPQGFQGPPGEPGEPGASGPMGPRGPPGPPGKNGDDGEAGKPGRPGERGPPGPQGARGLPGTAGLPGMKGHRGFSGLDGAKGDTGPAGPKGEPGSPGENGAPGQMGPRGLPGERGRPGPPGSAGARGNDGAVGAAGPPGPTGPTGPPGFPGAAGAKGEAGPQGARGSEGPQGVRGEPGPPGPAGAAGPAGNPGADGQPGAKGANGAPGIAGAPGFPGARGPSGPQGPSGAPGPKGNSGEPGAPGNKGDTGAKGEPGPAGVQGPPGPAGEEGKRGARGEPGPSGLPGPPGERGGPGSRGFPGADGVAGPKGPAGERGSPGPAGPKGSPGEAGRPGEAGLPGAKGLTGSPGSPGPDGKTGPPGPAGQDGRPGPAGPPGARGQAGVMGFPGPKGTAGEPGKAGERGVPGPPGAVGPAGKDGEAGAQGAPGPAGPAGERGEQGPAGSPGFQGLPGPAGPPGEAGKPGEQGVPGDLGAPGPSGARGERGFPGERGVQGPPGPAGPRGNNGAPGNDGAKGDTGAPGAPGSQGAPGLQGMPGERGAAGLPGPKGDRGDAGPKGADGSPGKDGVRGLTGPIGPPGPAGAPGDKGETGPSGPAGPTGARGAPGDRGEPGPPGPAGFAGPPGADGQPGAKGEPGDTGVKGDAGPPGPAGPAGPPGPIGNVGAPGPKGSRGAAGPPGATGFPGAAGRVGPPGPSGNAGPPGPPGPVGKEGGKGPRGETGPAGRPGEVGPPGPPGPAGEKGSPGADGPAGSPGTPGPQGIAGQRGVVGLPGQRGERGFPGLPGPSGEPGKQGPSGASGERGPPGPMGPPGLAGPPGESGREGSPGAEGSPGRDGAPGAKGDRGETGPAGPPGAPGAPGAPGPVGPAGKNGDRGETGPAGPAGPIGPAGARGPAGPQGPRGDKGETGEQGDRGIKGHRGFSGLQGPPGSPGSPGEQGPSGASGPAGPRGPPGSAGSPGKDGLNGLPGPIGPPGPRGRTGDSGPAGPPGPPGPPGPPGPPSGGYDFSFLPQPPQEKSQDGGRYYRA
T1 sequence (P02466 86-1125, chain 2 of 2): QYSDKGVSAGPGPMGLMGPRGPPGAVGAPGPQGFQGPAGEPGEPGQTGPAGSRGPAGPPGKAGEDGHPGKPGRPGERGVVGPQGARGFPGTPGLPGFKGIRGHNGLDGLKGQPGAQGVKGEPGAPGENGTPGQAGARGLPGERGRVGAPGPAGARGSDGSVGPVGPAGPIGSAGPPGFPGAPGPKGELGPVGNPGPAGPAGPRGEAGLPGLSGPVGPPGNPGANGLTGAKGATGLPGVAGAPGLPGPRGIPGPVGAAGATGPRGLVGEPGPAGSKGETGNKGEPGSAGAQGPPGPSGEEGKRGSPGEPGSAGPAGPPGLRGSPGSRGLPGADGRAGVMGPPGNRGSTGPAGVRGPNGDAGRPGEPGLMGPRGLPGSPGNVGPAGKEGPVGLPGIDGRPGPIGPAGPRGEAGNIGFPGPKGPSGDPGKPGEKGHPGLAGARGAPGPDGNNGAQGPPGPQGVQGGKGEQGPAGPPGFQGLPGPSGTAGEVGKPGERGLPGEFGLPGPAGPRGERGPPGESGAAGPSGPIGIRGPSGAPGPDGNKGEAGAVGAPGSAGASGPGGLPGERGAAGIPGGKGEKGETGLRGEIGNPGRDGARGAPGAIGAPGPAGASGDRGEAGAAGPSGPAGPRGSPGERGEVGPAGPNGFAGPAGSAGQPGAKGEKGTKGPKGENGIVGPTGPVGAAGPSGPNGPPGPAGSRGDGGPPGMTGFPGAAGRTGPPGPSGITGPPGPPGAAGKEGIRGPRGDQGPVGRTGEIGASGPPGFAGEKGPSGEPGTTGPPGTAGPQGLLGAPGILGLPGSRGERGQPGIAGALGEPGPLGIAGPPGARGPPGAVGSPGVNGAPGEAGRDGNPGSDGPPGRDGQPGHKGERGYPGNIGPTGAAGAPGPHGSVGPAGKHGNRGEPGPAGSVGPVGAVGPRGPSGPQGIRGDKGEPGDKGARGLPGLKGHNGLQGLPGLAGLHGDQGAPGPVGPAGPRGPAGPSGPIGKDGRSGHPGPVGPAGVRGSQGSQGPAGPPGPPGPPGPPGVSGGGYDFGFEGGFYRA
T2 sequence (P02454 152-1207, chain 1 of 2): as the sequence (P02454 152-1207, chain 1 of 2) above
T2 sequence (P02466 86-1125, chain 2 of 2): as the sequence (P02466 86-1125, chain 2 of 2) above

B1: Endo180 D1-4-Fc (dimeric Fc-tagged Endo180 domains 1-4) (Fc fusion)
chain: APLADAALPEPNVFLIFSHGLQGCLEAQGGQVRVTPACNTSLPAQRWKWVSRNRLFNLGTMQCLGTGWPGTNTTASLGMYECDREALNLRWHCRTLGDQLSLLLGARTSNISKPGTLERGDQTRSGQWRIYGSEEDLCALPYHEVYTIQGNSHGKPCTIPFKYDNQWFHGCTSTGREDGHLWCATTQDYGKDERWGFCPIKSNDCETFWDKDQLTDSCYQFNFQSTLSWREAWASCEQQGADLLSITEIHEQTYINGLLTGYSSTLWIGLNDLDTSGGWQWSDNSPLKYLNWESDQPDNPSEENCGVIRTESSGGWQNRDCSIALPYVCKKKPNATAEPTPPDRWANVKVECEPSWQPFQGHCYRLQAEKRSWQESKKACLRGGGDLVSIHSMAELEFITKQIKQEVEELWIGLNDLKLQMNFEWSDGSLVSFTHWHPFEPNNFRDSLEDCVTIWGPEGRWNDSPCNQSLPSICKKAGQLSQG
modifications: natively glycosylated (predicted N-linked sites Asn69, Asn102, Asn140, Asn364, Asn497)
For B1, the Kd in test [1] came to 2500 ± 250 nM; in test [2], 420 ± 30 nM.

B2: Endo180 D3-4-Fc (Fc fusion, human)
chain: APLAKSNDCETFWDKDQLTDSCYQFNFQSTLSWREAWASCEQQGADLLSITEIHEQTYINGLLTGYSSTLWIGLNDLDTSGGWQWSDNSPLKYLNWESDQPDNPSEENCGVIRTESSGGWQNRDCSIALPYVCKKKPNATAEPTPPDRWANVKVECEPSWQPFQGHCYRLQAEKRSWQESKKACLRGGGDLVSIHSMAELEFITKQIKQEVEELWIGLNDLKLQMNFEWSDGSLVSFTHWHPFEPNNFRDSLEDCVTIWGPEGRWNDSPCNQSLPSICKKAGQLSQG
notes: Endo180 (uPARAP), human, domains 3-4 (CTL1, CTL2), residues 231-513 of UniProt Q9UBG0; also called D3-4-Fc construct; source: HEK293 c18, transfected, secreted into serum-free medium, purified (protein A); not shown: Fc (IgG2), C-terminal, kept
In the case of B2, the Kd stood at 3700 ± 430 nM in test [1] and 2200 ± 150 nM in test [2].
